Assays:
BAM complex (BamABCDE) = BAM complex (BamABCDE) (E. coli, UniProt P0A940 21-810; P77774 20-392; P0A903 25-344; P0AC02 20-245; P0A937 20-113); assay: MST; 400 nM Alexa Fluor 488-labelled SurA variant, BAM complex titrated 25 µM-1 nM in proteoliposomes of E. coli polar lipid extract, 150 mM NaCl, 20 mM Tris-HCl, pH 8.0, 25 °C; BAM concentration taken as 50 % of the total for fitting; 1:1 quadratic binding model; details: both partners purified
[1] = molecular target: T1, β-barrel assembly machinery (BAM) complex, BamABCDE (E. coli, UniProt P0A940 21-810; P77774 20-392; P0A903 25-344; P0AC02 20-245; P0A937 20-113); assay: cell-based or functional assay
[2] = molecular target: T1, β-barrel assembly machinery (BAM) …; assay: MST; BAM in DDM micelles titrated (1.6 nM–52 μM) against 400 nM Alexa Fluor 488-labelled Cys-SurA variant; 0.02% (v/v) DDM, 150 mM NaCl, 20 mM Tris–HCl, pH 8, 25 °C; 1:1 quadratic binding model; details: both partners purified
[3] = molecular target: T1, β-barrel assembly machinery (BAM) …; assay: MST; BAM reconstituted in proteoliposomes of E. coli polar lipid extract titrated (25 µM–1 nM) against 400 nM Alexa Fluor 488-labelled SurA variant; TBS pH 8.0, 25 °C; 1:1 quadratic binding model; details: both partners purified

B1: Alexa Fluor 488-labelled Cys-SurA-WT (natural protein)
chain: GCAPQVVDKVAAVVNNGVVLESDVDGLMQSVKLNAAQARQQLPDDATLRHQIMERLIMDQIILQMGQKMGVKISDEQLDQAIANIAKQNNMTLDQMRSRLAYDGLNYNTYRNQIRKEMIISEVRNNEVRRRITILPQEVESLAQQVGNQNDASTELNLSHILIPLPENPTSDQVNEAESQARAIVDQARNGADFGKLAIAHSADQQALNGGQMGWGRIQELPGIFAQALSTAKKGDIVGPIRSGVGFHILKVNDLRGESKNISVTEVHARHILLKPSPIMTDEQARVKLEQIAADIKSGKTTFAAAAKEFSQDPGSANQGGDLGWATPDIFDPAFRDALTRLNKGQMSAPVHSSFGWHLIELLDTRNVDKTDAAQKDRAYRMLMNRKFSEEAASWMQEQRASAYVKILSN
modifications: Alexa Fluor 488 (C5 maleimide) on the added N-terminal cysteine
notes: glycine left after TEV cleavage (ENLYFQG) and the cysteine added immediately following the TEV cleavage site; the order G-C is worked out from the text; gene numbering including the signal peptide; not shown: His6, N-terminal, cleaved
Kd (BAM complex (BamABCDE)): 600 nM

B2: Alexa Fluor 488-labelled Cys-SurA-∆P1 (domain or fragment)
chain: GCAPQVVDKVAAVVNNGVVLESDVDGLMQSVKLNAAQARQQLPDDATLRHQIMERLIMDQIILQMGQKMGVKISDEQLDQAIANIAKQNNMTLDQMRSRLAYDGLNYNTYRNQIRKEMIISEVRNNEVRRRITILPQEVESLAQQVGNQNDASSVTEVHARHILLKPSPIMTDEQARVKLEQIAADIKSGKTTFAAAAKEFSQDPGSANQGGDLGWATPDIFDPAFRDALTRLNKGQMSAPVHSSFGWHLIELLDTRNVDKTDAAQKDRAYRMLMNRKFSEEAASWMQEQRASAYVKILSN
modifications: Alexa Fluor 488 (C5 maleimide) on the added N-terminal cysteine
notes: as for B1
Kd (BAM complex (BamABCDE)): 600 nM

B3: Alexa Fluor 488-labelled Cys-SurA-∆P2 (domain or fragment)
chain: GCAPQVVDKVAAVVNNGVVLESDVDGLMQSVKLNAAQARQQLPDDATLRHQIMERLIMDQIILQMGQKMGVKISDEQLDQAIANIAKQNNMTLDQMRSRLAYDGLNYNTYRNQIRKEMIISEVRNNEVRRRITILPQEVESLAQQVGNQNDASTELNLSHILIPLPENPTSDQVNEAESQARAIVDQARNGADFGKLAIAHSADQQALNGGQMGWGRIQELPGIFAQALSTAKKGDIVGPIRSGVGFHILKVNDLRGESKNIDAAQKDRAYRMLMNRKFSEEAASWMQEQRASAYVKILSN
modifications: Alexa Fluor 488 (C5 maleimide) on the added N-terminal cysteine
notes: as for B1
Kd (BAM complex (BamABCDE)): 1200 nM

B4: Alexa Fluor 488-labelled Cys-SurA-core (domain or fragment)
chain: GCAPQVVDKVAAVVNNGVVLESDVDGLMQSVKLNAAQARQQLPDDATLRHQIMERLIMDQIILQMGQKMGVKISDEQLDQAIANIAKQNNMTLDQMRSRLAYDGLNYNTYRNQIRKEMIISEVRNNEVRRRITILPQEVESLAQQVGNQNDASDAAQKDRAYRMLMNRKFSEEAASWMQEQRASAYVKILSN
modifications: Alexa Fluor 488 (C5 maleimide) on the added N-terminal cysteine
notes: as for B1
Kd (BAM complex (BamABCDE)): 700 nM

B5: SurA-WT (wild-type SurA, residues 21-428, His-tag cleaved) (natural protein)
chain: APQVVDKVAAVVNNGVVLESDVDGLMQSVKLNAAQARQQLPDDATLRHQIMERLIMDQIILQMGQKMGVKISDEQLDQAIANIAKQNNMTLDQMRSRLAYDGLNYNTYRNQIRKEMIISEVRNNEVRRRITILPQEVESLAQQVGNQNDASTELNLSHILIPLPENPTSDQVNEAESQARAIVDQARNGADFGKLAIAHSADQQALNGGQMGWGRIQELPGIFAQALSTAKKGDIVGPIRSGVGFHILKVNDLRGESKNISVTEVHARHILLKPSPIMTDEQARVKLEQIAADIKSGKTTFAAAAKEFSQDPGSANQGGDLGWATPDIFDPAFRDALTRLNKGQMSAPVHSSFGWHLIELLDTRNVDKTDAAQKDRAYRMLMNRKFSEEAASWMQEQRASAYVKILSN
rate of BAM-mediated folding of tOmpA into proteoliposomes (cold SDS–PAGE), without SurA-WT against with 10 μM SurA-WT [1]: ~6 fold

B6: SurA-∆P2 (SurA 21-428 without residues 281-389, His-tag cleaved) (domain or fragment)
chain: APQVVDKVAAVVNNGVVLESDVDGLMQSVKLNAAQARQQLPDDATLRHQIMERLIMDQIILQMGQKMGVKISDEQLDQAIANIAKQNNMTLDQMRSRLAYDGLNYNTYRNQIRKEMIISEVRNNEVRRRITILPQEVESLAQQVGNQNDASTELNLSHILIPLPENPTSDQVNEAESQARAIVDQARNGADFGKLAIAHSADQQALNGGQMGWGRIQELPGIFAQALSTAKKGDIVGPIRSGVGFHILKVNDLRGESKNIDAAQKDRAYRMLMNRKFSEEAASWMQEQRASAYVKILSN
rate of BAM-catalysed folding of tOmpA into proteoliposomes (cold SDS–PAGE), with SurA-∆P2 against SurA-WT [1]: ~3 fold

B7: Alexa Fluor 488-labelled Cys-SurA-WT (natural protein)
chain: CAPQVVDKVAAVVNNGVVLESDVDGLMQSVKLNAAQARQQLPDDATLRHQIMERLIMDQIILQMGQKMGVKISDEQLDQAIANIAKQNNMTLDQMRSRLAYDGLNYNTYRNQIRKEMIISEVRNNEVRRRITILPQEVESLAQQVGNQNDASTELNLSHILIPLPENPTSDQVNEAESQARAIVDQARNGADFGKLAIAHSADQQALNGGQMGWGRIQELPGIFAQALSTAKKGDIVGPIRSGVGFHILKVNDLRGESKNISVTEVHARHILLKPSPIMTDEQARVKLEQIAADIKSGKTTFAAAAKEFSQDPGSANQGGDLGWATPDIFDPAFRDALTRLNKGQMSAPVHSSFGWHLIELLDTRNVDKTDAAQKDRAYRMLMNRKFSEEAASWMQEQRASAYVKILSN
modifications: Alexa Fluor 488 on the added N-terminal cysteine (maleimide)
notes: cysteine residue added immediately following the TEV cleavage site; numbers are the gene numbering (including the signal peptide); A G of the TEV site probably precedes the added cysteine after cleavage (surmised); also called Alexa Fluor 488-labelled SurA; not shown: His6, N-terminal, cleaved
Kd [2]: 2600 ± 200 nM

B8: Alexa Fluor 488-labelled Cys-SurA-core (domain or fragment)
chain: CAPQVVDKVAAVVNNGVVLESDVDGLMQSVKLNAAQARQQLPDDATLRHQIMERLIMDQIILQMGQKMGVKISDEQLDQAIANIAKQNNMTLDQMRSRLAYDGLNYNTYRNQIRKEMIISEVRNNEVRRRITILPQEVESLAQQVGNQNDASDAAQKDRAYRMLMNRKFSEEAASWMQEQRASAYVKILSN
modifications: Alexa Fluor 488 on the added N-terminal cysteine (maleimide)
notes: cysteine residue added immediately following the TEV cleavage site; numbers are the gene numbering (including the signal peptide); A G of the TEV site probably precedes the added cysteine after cleavage (surmised); not shown: His6, N-terminal, cleaved
Kd [2]: 1300 ± 300 nM

B9: Alexa Fluor 488-labelled Cys-SurA-∆P1 (domain or fragment)
chain: CAPQVVDKVAAVVNNGVVLESDVDGLMQSVKLNAAQARQQLPDDATLRHQIMERLIMDQIILQMGQKMGVKISDEQLDQAIANIAKQNNMTLDQMRSRLAYDGLNYNTYRNQIRKEMIISEVRNNEVRRRITILPQEVESLAQQVGNQNDASSVTEVHARHILLKPSPIMTDEQARVKLEQIAADIKSGKTTFAAAAKEFSQDPGSANQGGDLGWATPDIFDPAFRDALTRLNKGQMSAPVHSSFGWHLIELLDTRNVDKTDAAQKDRAYRMLMNRKFSEEAASWMQEQRASAYVKILSN
modifications: Alexa Fluor 488 on the added N-terminal cysteine (maleimide)
notes: cysteine residue added immediately following the TEV cleavage site; numbers are the gene numbering (including the signal peptide); A G of the TEV site probably precedes the added cysteine after cleavage (surmised); also called SurA-ΔP1; not shown: His6, N-terminal, cleaved
binding result [3]: binds

B10: Alexa Fluor 488-labelled Cys-SurA-∆P2 (domain or fragment)
chain: CAPQVVDKVAAVVNNGVVLESDVDGLMQSVKLNAAQARQQLPDDATLRHQIMERLIMDQIILQMGQKMGVKISDEQLDQAIANIAKQNNMTLDQMRSRLAYDGLNYNTYRNQIRKEMIISEVRNNEVRRRITILPQEVESLAQQVGNQNDASTELNLSHILIPLPENPTSDQVNEAESQARAIVDQARNGADFGKLAIAHSADQQALNGGQMGWGRIQELPGIFAQALSTAKKGDIVGPIRSGVGFHILKVNDLRGESKNIDAAQKDRAYRMLMNRKFSEEAASWMQEQRASAYVKILSN
modifications: Alexa Fluor 488 on the added N-terminal cysteine (maleimide)
notes: as for B8
binding result [3]: binds

Reference: article PMC9177699, “Dynamic interplay between the periplasmic chaperone SurA and the BAM complex in outer membrane protein folding” (Communications Biology, 2022)
